Results as given in patent US20230348881.

B1: human MMP7 (protein)
chain: YSLFPNSPKWTSKVVTYRIVSYTRDLPHITVDRLVSKALNMWGKEIPLHFRKVVWGTADIMIGFARGAHGDSYPFDGPGNTLAHAFAPGTGLGGDAHFDEDERWTDGSSLGINFLYAATHELGHSLGMGHSSDPNAVMYPTYGNGDPQNFKLSQDDIKGIQKLYGKRSNSRKK
B2: human MMP12 (matrix metalloproteinase-12) (protein)
chain: GPVWRKHYITYRINNYTPDMNREDVDYAIRKAFQVWSNVTPLKFSKINTGMADILVVFARGAHGDFHAFDGKGGILAHAFGPGSGIGGDAHFDEDEFWTTHSGGTNLFLTAVHEIGHSLGLGHSSDPKAVMFPTYKYVDINTFRLSADDIRGIQSLYG

Experiments:
[1] = target: exemplary modified PPE proproteins
[2] = target: Mutant 2, modified PPE proprotein with the MMP12 cleavage site, PPE optimized (SEQ ID NO: 9)
[3] = target: Mutant 3, modified PPE proprotein with the MMP12 cleavage site, balanced (SEQ ID NO: 10)
[4] = target: wild-type PPE proprotein as used in Example 2
wild-type PPE proprotein as used in Example 2, sequence (chain, as listed by the source): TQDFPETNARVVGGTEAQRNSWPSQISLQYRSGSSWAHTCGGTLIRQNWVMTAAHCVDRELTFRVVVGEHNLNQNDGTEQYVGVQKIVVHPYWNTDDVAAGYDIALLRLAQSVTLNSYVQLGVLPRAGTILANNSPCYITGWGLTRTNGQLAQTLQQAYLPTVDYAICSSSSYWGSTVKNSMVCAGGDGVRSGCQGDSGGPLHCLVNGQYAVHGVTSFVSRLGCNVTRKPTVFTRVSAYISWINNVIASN

Mutant 2, modified PPE proprotein with the MMP12 cleavage site, PPE optimized (SEQ ID NO: 9), sequence (chain, as listed by the source mutant): as the sequence (chain, as listed by the source) above, with T7G, N8A, R10G counted along it
Mutant 3, modified PPE proprotein with the MMP12 cleavage site, balanced (SEQ ID NO: 10), sequence (chain, as listed by the source mutant): as the sequence (chain, as listed by the source) above, with T7G, N8A, R10G, V11L counted along it

Row | Protein | catalytic activity after protease digestion (colorimetric substrate assay), FIG. 4B [1] | protease cleavage by SDS-PAGE and Coomassie blue staining [2] | protease cleavage by SDS-PAGE and Coomassie blue staining [3] | catalytic activity after protease digestion (colorimetric substrate assay, N-Methoxysuccinyl-Ala-Ala-Pro-Val p-nitroanilide), FIG. 4A [1] | catalytic activity after protease digestion (colorimetric substrate assay), FIG. 4B [4]
1 | B1 | partially-catalytically-active after incubation with MMP7 |  |  |  | 
2 | B2 | catalytically-active after incubation with MMP12 | the MMP12 protease cleaved the exemplary modified PPE proteins designated as Mutant 2 (3A) | the MMP12 protease cleaved the exemplary modified PPE proteins designated as ... Mutant 3 (3B) | catalytically-active after incubation by MMP12, relative to the activity of the native PPE as a control | catalytically-inactive after incubation with MMP12 or no protease
